Measurements taken from paper PMC7430982 (Proceedings of the National Academy of Sciences of the …, 2020).
Substitutions are numbered along the chain they refer to. Numbers in names are those of the source.

B1: NaAtm1 A527C (natural protein)
chain: MPPETATNPKDARHDGWQTLKRFLPYLWPADNAVLRRRVVGAILMVLLGKATTLALPFAYKKAVDAMTLGGGAQPALTVALAFVLAYALGRFSGVLFDNLRNIVFERVGQDATRHLAENVFARLHKLSLRFHLARRTGEVTKVIERGTKSIDTMLYFLLFNIAPTVIELTAVIVIFWLNFGLGLVTATILAVIAYVWTTRTITEWRTHLREKMNRLDGQALARAVDSLLNYETVKYFGAESREEARYASAARAYADAAVKSENSLGLLNIAQALIVNLLMAGAMAWTVYGWSQGKLTVGDLVFVNTYLTQLFRPLDMLGMVYRTIRQGLIDMAEMFRLIDTHIEVADVPNAPALVVNRPSVTFDNVVFGYDRDREILHGLSFEVAAGSRVAIVGPSGAGKSTIARLLFRFYDPWEGRILIDGQDIAHVTQTSLRAALGIVPQDSVLFNDTIGYNIAYGRDGASRAEVDAAAKGAAIADFIARLPQGYDTEVGERGLKLSGGEKQRVAIARTLVKNPPILLFDEATSCLDTRTEQDILSTMRAVASHRTTISIAHRLSTIADSDTILVLDQGRLAEQGSHLDLLRRDGLYAEMWARQAAESAEVSEAAE
modifications: disulfide between the two equivalent C527 residues of the dimer (crosslinking yield ~70%)
B2: NaAtm1 S526C (natural protein)
chain: B1 chain with S526C, C527A
modifications: disulfide between the two equivalent C526 residues of the dimer (crosslinking yield ~70%)
B3: NaAtm1 E523Q (ATP-hydrolysis-deficient Walker-B mutant) (natural protein)
chain: B1 chain with E523Q, C527A
B4: NaAtm1 (ABC transporter of mitochondria homolog from Novosphingobium aromaticivorans), wild type (natural protein)
chain: B1 chain with C527A

Tests used:
cross-linking = molecular target: the molecule itself; test: cross-linking
crystal structure = molecular target: the molecule itself; test: crystal structure
cryo-EM structure = molecular target: the molecule itself; test: cryo-EM structure

Row | Protein | crosslinking yield (cross-linking) | also measured
1 | B1 | ~70% | 
2 | B2 | ~70% | 
3 | B3 |  | binding result (crystal structure): binds
4 | B4 |  | binding result (cryo-EM structure): binds
